Data published in patent US20220406376A1 (MacroGenics, published 2022).
Where a chain is given by its changes, count along the chain named.

T1: extracellular portion of cynomolgus monkey CD137 fused to a histidine-containing peptide (cynomolgus monkey, UniProt A9YYE7 24-186)
T1 construct: extracellular domain; also called cynoCD137
T1 sequence: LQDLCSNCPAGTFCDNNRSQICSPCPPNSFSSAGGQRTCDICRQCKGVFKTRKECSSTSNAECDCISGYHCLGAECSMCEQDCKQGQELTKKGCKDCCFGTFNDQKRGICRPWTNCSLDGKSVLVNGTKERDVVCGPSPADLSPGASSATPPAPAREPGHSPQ

B1: DART-G3 (bispecific antibody, human IgG1, kappa, L234A L235A)
heavy: QVQLVQSGAEVKKPGASVKVSCKASGYTFTNYGMNWVRQAPGQGLEWMGWINTNIGEPTYTEEFKGRVTMTRDTSISTAYMELSRLRSDDTAVYYCARDDGYGNRVSYWGQGTLVTVSSASTKGPSVFPLAPSSKSTSGGTAALGCLVKDYFPEPVTVSWNSGALTSGVHTFPAVLQSSGLYSLSSVVTVPSSSLGTQTYICNVNHKPSNTKVDKRVEPKSCDKTHTCPPCPAPEAAGGPSVFLFPPKPKDTLMISRTPEVTCVVVDVSHEDPEVKFNWYVDGVEVHNAKTKPREEQYNSTYRVVSVLTVLHQDWLNGKEYKCKVSNKALPAPIEKTISKAKGQPREPQVYTLPPSREEMTKNQVSLSCAVKGFYPSDIAVEWESNGQPENNYKTTPPVLDSDGSFFLVSKLTVDKSRWQQGNVFSCSVMHEALHNRYTQKSLSLSPGK
light: DIQMTQSPSSLSASVGDRVTITCKASQDISNYLSWFQQKPGKAPKTLIYRANRLQSGVPSRFSGSGSGTDFTLTISSLQPEDFATYYCLQHDEFPWTFGQGTKLEIKRTVAAPSVFIFPPSDEQLKSGTASVVCLLNNFYPREAKVQWKVDNALQSGNSQESVTEQDSKDSTYSLSSTLTLSKADYEKHKVYACEVTHQGLSSPVTKSFNRGEC
chain 1: QVQLVQSGAEVKKPGASVKVSCKASGYTFTNYGMNWVRQAPGQGLEWMGWINTNIGEPTYTEEFKGRVTMTRDTSISTAYMELSRLRSDDTAVYYCARDDGYGNRVSYWGQGTLVTVSSASTKGPSVFPLAPSSKSTSGGTAALGCLVKDYFPEPVTVSWNSGALTSGVHTFPAVLQSSGLYSLSSVVTVPSSSLGTQTYICNVNHKPSNTKVDKRVEPKSCDKTHTCPPCPAPEAAGGPSVFLFPPKPKDTLMISRTPEVTCVVVDVSHEDPEVKFNWYVDGVEVHNAKTKPREEQYNSTYRVVSVLTVLHQDWLNGKEYKCKVSNKALPAPIEKTISKAKGQPREPQVYTLPPSREEMTKNQVSLWCLVKGFYPSDIAVEWESNGQPENNYKTTPPVLDSDGSFFLYSKLTVDKSRWQQGNVFSCSVMHEALHNHYTQKSLSLSPGGGGSGGGSGGGDIQMTQSPSSLSASVGDRVTITCRPSQDISNYLNWYQQKPDKTVKLLIYYTSRLRSGVPSRFSGSGSGTDFTFTISSLQPEDIATYFCQQGDTLPYTFGQGTKLEIKGGGSGGGGQVQVQLVQSGAEVKKPGASVKVSCKASGYTFTSYWINWVKQAPGQGLEWIGNIYPSDSYTNYNQKFKDKATITADKSTSTAYMELSSLRSEDTAVYYCTRDYGSAYSYSLWGQGTTVTVSSGGCGGGEVAALEKEVAALEKEVAALEKEVAALEK
chain 2: DIQMTQSPSSLSASVGDRVTITCRPSQDISNYLNWYQQKPDKTVKLLIYYTSRLRSGVPSRFSGSGSGTDFTFTISSLQPEDIATYFCQQGDTLPYTFGQGTKLEIKGGGSGGGGQVQLVQSGAEVKKPGASVKVSCKASGYTFTSYWINWVKQAPGQGLEWIGNIYPSDSYTNYNQKFKDKATITADKSTSTAYMELSSLRSEDTAVYYCTRDYGSAYSYSLWGQGTTVTVSSGGCGGGKVAALKEKVAALKEKVAALKEKVAALKE
notes: also called optimized DART-G3
B2: DART-G2 (bispecific antibody, human IgG1, kappa, L234A L235A)
heavy: B1 heavy
light: B1 light
chain 1: B1 chain 1 with Y682M, L684T
chain 2: B1 chain 2 with Y221M, L223T
notes: also called optimized DART-G2

Key:
[1] = biological target: T2, CD137 on the surface of cells (activated human T cells; engineered CHO cells) (human, UniProt Q07011 24-255); assay: flow cytometry on CD137-expressing CHO cells (CHO/137), anti-hFc APC MFI
T2 construct: whole, on cells; also called human CD137; cell surface expressed CD137
T2 sequence (Q07011 24-255, change not shown): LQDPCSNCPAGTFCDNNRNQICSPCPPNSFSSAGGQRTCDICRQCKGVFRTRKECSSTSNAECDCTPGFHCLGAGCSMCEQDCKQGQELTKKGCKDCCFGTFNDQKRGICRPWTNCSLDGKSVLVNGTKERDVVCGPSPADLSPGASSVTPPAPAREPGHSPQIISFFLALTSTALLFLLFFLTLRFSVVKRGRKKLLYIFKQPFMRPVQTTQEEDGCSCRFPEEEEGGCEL

[2] = biological target: T3, HER2/neu on the surface of target cells (N87, JIMT-1, MCF-7, MDA-MB231) (UniProt P04626 23-1255, limits assumed); assay: flow cytometry on MCF-7 cells, anti-hFc APC MFI
T3 construct: whole, on cells

[3] = biological target: T4, extracellular portion of human CD137 fused to a histidine-containing peptide (human, UniProt Q07011 24-186); assay: SPR (BIACORE); molecule captured on anti-human Fc; huCD137 6.25-100 nM; 1:1 Langmuir
T4 construct: extracellular domain; also called huCD137; His-tagged soluble human CD137
Procedure: (§1) The amino acid sequences of these clones were incorporated into the 5 chain diabody DART-G to yield optimized DART-G molecules (designated as DART-G1, DART-G2; DART-G3, and DART-G4). The binding affinity of DART-G2, DART-G3, and DART-G4 were evaluated via BIAcore (Table 11). For such evaluation, His-tagged soluble human CD137 (huCD137) or cynomolgus monkey CD137 (cynoCD137) (containing an extracellular portion of human or cynomolgus monkey CD137 fused to a histidine-containing peptide) was passed over a surface coated with immobilized antibody. Briefly, each test molecule was captured onto an F(ab)₂ goat-anti-human Fc-coated surface and then incubated in the presence of different concentrations (6.25-100 nM) of huCD137 or cynoCD137. The kinetics of binding were determined via BIACORE® analysis binding (normalized 1:1 Langmuir binding model).

[4] = biological target: T3, HER2/neu on the surface of target cells …; assay: flow cytometry on N87 cells, anti-hFc APC MFI
[5] = biological target: T1, extracellular portion of cynomolgus …; assay: SPR (BIACORE); molecule captured on anti-human Fc; cynoCD137 6.25-100 nM; column head ×10^-4 applied as printed
Procedure: as §1

[6] = biological target: T2, CD137 on the surface of cells …; assay: flow cytometry on activated pan T cells (donor D46433, CD8 PE), anti-hFc APC MFI
[7] = biological target: T1, extracellular portion of cynomolgus …; assay: SPR (BIACORE); molecule captured on anti-human Fc; cynoCD137 6.25-100 nM; 1:1 Langmuir
Procedure: as §1

[8] = biological target: T2, CD137 on the surface of cells …; assay: flow cytometry on activated CD8+ T cells (donor D53781, CD8 FITC), anti-hFc APC MFI
[9] = biological target: T3, HER2/neu on the surface of target cells …; assay: flow cytometry on JIMT-1 cells, anti-hFc APC MFI

| Binder | EC50 (read off the curve) [1] [µg/mL] | EC50 (read off the curve) [2] [nM] | Kd [3] [nM] | koff [3] [s⁻¹] | kon [3] [M⁻¹ s⁻¹] | EC50 (read off the curve) [4] [nM] | koff [5] [s⁻¹] | EC50 (read off the curve) [6] [nM] | Kd [7] [nM] | kon [7] [M⁻¹ s⁻¹] | EC50 (read off the curve) [8] [µg/mL] | EC50 (read off the curve) [9] [nM] |
| --- | --- | --- | --- | --- | --- | --- | --- | --- | --- | --- | --- | --- |
| B1 | ~0.02 | ~0.09 | 64 | 0.014 | 220000 | ~0.5 | 0.018 | ~0.1 | 78 | 230000 | ~0.02 | ~0.2 |
| B2 | ~0.02 | ~0.09 | 60 | 0.021 | 350000 | ~0.5 | 0.025 | ~0.1 | 64 | 390000 | ~0.02 | ~0.2 |
